Test results taken from publication PMC5333794.

Assays:
gp120 (bead-conjugated) = experiment: Fc Array (multiplexed bead assay, anti-huIgG-PE detection); details: variants incubated with gp120-coated microspheres at equal concentrations; read off a plot
[1] = target: tetrameric FcγRIII detection reagent (UniProt P08637); experiment: Fc Array (multiplexed bead assay, tetrameric FcγRIII detection); details: variants incubated with gp120-coated microspheres at equal concentrations; read off a plot
UniProt P08637, sequence (P08637 17-254): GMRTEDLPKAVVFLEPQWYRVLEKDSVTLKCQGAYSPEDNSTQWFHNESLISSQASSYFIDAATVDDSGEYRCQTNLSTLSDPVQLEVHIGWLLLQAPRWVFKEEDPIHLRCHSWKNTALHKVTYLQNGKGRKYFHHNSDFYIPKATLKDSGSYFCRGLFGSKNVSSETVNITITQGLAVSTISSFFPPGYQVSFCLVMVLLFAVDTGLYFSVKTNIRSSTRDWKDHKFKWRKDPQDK

Substance | response (gp120 (bead-conjugated)) | response [1]
b12 D270E | 14000 MFI | 110 MFI
b12 G236A | 14000 MFI | 59 MFI
b12 I332E | 13000 MFI | 320 MFI
b12 IE/SD | 14000 MFI | 2000 MFI
b12 IE/SD/GA | 13000 MFI | 1100 MFI
b12 K338A | 13000 MFI | 110 MFI
b12 R292A | 13000 MFI | 140 MFI
b12 S239A | 13000 MFI | 110 MFI
b12 S267G | 14000 MFI | 80 MFI
b12 S298A | 14000 MFI | 96 MFI
b12 SD/IE/AL | 13000 MFI | 2800 MFI
